Assay [1] can be described thus: Luminescence activity of WNanoKAZ in crude enzyme solution (Example 3). Format: biochemical. The note with it: crude enzyme solution, pCold-ZZ-P- vector in E. coli; coelenterazine substrate; KAZ = 1.0. Here is the method:
In order to express WNanoKAZ in E. coli, pCold-ZZ-P-WNanoKAZ obtained in EXAMPLE 1 was used. The E. coli BL21 strain (Novagen, Madison, Wis.) was used as a host cell. The BL21 strain carrying the recombinant plasmid was incubated in 5 mL of Luria-Bertani medium (hereinafter designated as LB medium) containing ampicillin (50 μg/mL) at 37° C. for 17 hours. The seed culture of 0.1 mL was inoculated to 10 mL of LB medium and incubated for 3 hours, followed by cooling in freezing water for 1 hour. IPTG was added to the culture medium at a final concentration of 0.1 mM, followed by incubation at 15° C. for further 19 hours. After completion of the incubation, 1 mL of the culture medium was collected by centrifugation at 10,000 rpm for 2 minutes. The collected E. coli cells were suspended in 0.5 mL of 30 mM Tris-HCl (pH 7.6)-10 mM EDTA. The cells were disrupted by sonication for 3 seconds using a Branson Model 250 Sonifire (Danbury, Conn.) to give a crude enzyme solution. Then, DTT was added to the crude enzyme solution at a final concentration of 1 mM. After the mixture was allowed to stand in freezing water over 8 hours or more, the luminescence activity was measured.
1 μl of the crude enzyme solution obtained in EXAMPLE 2 was added to 100 μl of 30 mM Trix-HCl (pH 7.6)-10 mM EDTA (Wako Pure Chemical Industries, Ltd.) containing 1 μg of coelenterazine (manufactured by JINC Corp.), luminescence reaction was started. Luminescence activity was measured for 60 seconds using a luminometer (manufactured by Atto Inc.: AB2200); the maximum intensity of luminescence (Imax) was given as a relative luminescence activity.

For assay [2], the system named is CHO-K1 cells. Put plainly: Luminescence activity of KAZ mutants expressed in animal cultured cells, culture medium and cell extract (Example 6). Format: cell-based, Chinese hamster. Conditions: pcDNA3-GLsp- vector in CHO-K1, coelenterazine substrate. Here is the method: (§1) Chinese hamster ovary cell line CHO-K1 was cultured in Ham's F-12 medium (manufactured by Wako Pure Chemical Industries, Ltd.) supplemented with 10% (v/v) fetal bovine serum (manufactured by Biowest Inc.). The CHO-K1 cells were seeded in a 6-well plate in 1×10^5 cells/well/2 mL medium (n=2) and cultured in an incubator at 37° C. in 5% (v/v) CO2. After 24 hours, the purified recombinant plasmid was transfected to CHO-K1 cells using a FuGene HD transfection kit (manufactured by Promega Corp.) and the cells were used for subsequent experiment. Specifically, 1 μg of the recombinant plasmid, 0.1 μg of the internal standard vector pGL4.13 [Luc2/sv40] and 3 μL of FuGene HD were added to 100 μL of the medium and allowed to stand at room temperature for 15 minutes. Subsequently, 100 μL of the DNA-FuGene complex solution was added to the cells in the 6-well plate. After incubation for 46 hours, the culture medium was collected. On the other hand, the KAZ mutant expressed in the cells was washed 3 times with 3 mL of 1×PBS, then suspended in 1 mL of 1×PBS and disrupted by sonication on ice. The resultant cell extract of WNanoKAZ was used as the enzyme solution.
(§2) After adding 5 μL of the culture medium and cell extract obtained in EXAMPLE 5 to 100 μL of 30 mM Tris-HCl (pH 7.6)-10 mM EDTA (Wako Pure Chemical Industries, Ltd.) containing 1 μg of coelenterazine (manufactured by JNC Corp.), a luminescence reaction was started. Luminescence activity was measured for 60 seconds using a luminometer (manufactured by Atto Inc.: AB2200). The maximum intensity of luminescence (Imax) was given as a percentage (%).

The nature of assay [3]: Luminescence activity of ZZ-fused WNanoKAZ mutants in crude enzyme solution (Example 10). Conditions: ZZ-fused, pCold-ZZ-P- vector in E. coli, coelenterazine substrate, KAZ = 1.0. Format: biochemical. How it is done: In order to express ZZ-fused KAZ mutants in E. coli, the recombinant plasmid produced in EXAMPLE 8 and pCold-ZZ-P-WNanoKAZ produced in EXAMPLE 1 were used. The crude enzyme solution was prepared in a manner similar to EXAMPLE 2, using the E. coli BL21 strain (Novagen, Madison, Wis.) as a host cell. Then, 5 μL of the crude enzyme solution obtained was subjected to SDS-PAGE analysis to confirm the protein expression in all mutants. In FIG. 1, M and 1 to 8 represent as follows. M: molecular weight size markers; 1: ZZ-P-KAZ; 2: ZZ-P-WNanoKAZ; 3: ZZ-P-WNanoKAZ-V90I; 4: ZZ-P-WNanoKAZ-E115P; 5: ZZ-P-WNanoKAZ-K124Q; 6: ZZ-P-WNanoKAZ-I138Y; 7: ZZ-P-WNanoKAZ-R166N; 8: ZZ-P-dnKAZ. It was confirmed from FIG. 1 that all mutants were expressed.
(§3) DTT was added to the crude enzyme solution obtained in EXAMPLE 9 at a final concentration of 1 mM, and then allowed to stand in an ice-water bath over 8 hours or more. After 1 μL of the crude enzyme solution was added to 100 μL of 30 mM Tris-HCl (pH 7.6)-10 mM EDTA (Wako Pure Chemical Industries, Ltd.) containing 1 μg of coelenterazine (manufactured by JNC Corp.), a luminescence reaction was started. Luminescence activity was measured for 60 seconds using a luminometer (manufactured by Atto Inc.: AB2200). The maximum intensity of luminescence (Imax) was given as a relative luminescence activity (rlu).

Assay [4] in a line: Substrate specificity of WNanoKAZ mutants, crude enzyme solution (Example 11). Type of assay: biochemical. How it is done: as §3
Each of the coelenterazine analogues used for substrate specificity studies was synthesized by the methods described in publications. Specifically, bis-coelenterazine was synthesized by the method described in Nakamura et al. (1997) Tetrahedron Lett. 38: 6405-6406, furimazine by the method described in Hall et al. (2012) ACS Chem. Biol. […], and, 6h-coelenterazine, f-coelenterazine and 6h-f-coelenterazine by the method described in Inouye et al (2013) Biochem. Biophys. Res. Commun. 437: 23-28. Luminescence activity was measured by the same method as in EXAMPLE 10, using the crude enzyme solution obtained in EXAMPLE 10, in which coelenterazine or its analogue was used as the luminescence substrate.

The test system of assay [5] is CHO-K1 cells. The assay can be described thus: Luminescence activity of WNanoKAZ mutants expressed by secretory expression vectors in animal culture cells (Example 13). Type of assay: cell-based, Chinese hamster. Conditions: pcDNA3-GLsp- secretory vector, coelenterazine substrate. Here is the method: as §1, §2
The recombinant plasmid obtained in EXAMPLE 12 or 4 was purified in a manner similar to EXAMPLE 5 and dissolved in sterile water. The firefly luciferase vector (pGL4.13 [Luc2/sv40]: manufactured by Promega Corp.) was similarly prepared and used as an internal standard.
Culture medium containing two amino acid-substituted KAZ mutants and three amino acid-substituted KAZ mutants and cell extracts of the KAZ mutants as the enzyme solutions were prepared by the same procedure as in EXAMPLE 9.
The resultant culture medium and cell extracts were used to measure luminescence activity as in EXAMPLE 6.

B1: KAZ: 19 kDa protein of native Oplophorus luciferase having luminescence activity; SEQ ID NO: 2 (protein, listed as Oplophorus gracilirostris)
chain: FTLADFVGDWQQTAGYNQDQVLEQGGLSSLFQALGVSVTPIQKVVLSGENGLKADIHVIIPYEGLSGFQMGLIEMIFKVVYPVDDHHFKIILHYGTLVIDGVTPNMIDYFGRPYPGIAVFDGKQITVTGTLWNGNKIYDERLINPDGSLLFRVTINGVTGWRLCENILA
In the case of B1, the “Relative luminescence activity (Imax)” value in assay [1] stood at 1.0. The “Relative luminescence activity (%, Imax) Cell extracts” value with CHO-K1 cells [2] (cell extracts) worked out at 0.2%. In the assay on CHO-K1 cells [2] (culture medium), the “Relative luminescence activity (%, Imax) Culture medium” value came out at 0.1%. In assay [3], the “Relative luminescence activity (Imax)” value was found to be 1.0. In assay [4] (Imax), the “Relative luminescence activity, Furimazine, Imax” value stood at 0.2; the “Relative luminescence activity, bis-CTZ, Imax” value was 0.5; the “Relative luminescence activity, f-CTZ, Imax” value stood at 1.0; the “Relative luminescence activity, h-CTZ, Imax” value is 1.2. In assay [4] (Int.), the “Relative luminescence activity, Furimazine, Int.” value was found to be 0.3; the “Relative luminescence activity, bis-CTZ, Int.” value worked out at 0.1; the “Relative luminescence activity, f-CTZ, Int.” value turned out to be 0.9; the “Relative luminescence activity, h-CTZ, Int.” value is on record as 0.9. Also, in assay [4] (substrate 6h-CTZ, Imax), the “Relative luminescence activity, 6h-CTZ, Imax” value was 0.08. Besides, the “Relative luminescence activity, 6h-CTZ, Int.” value in assay [4] (substrate 6h-CTZ, Int.) was 0.1. In addition, the “Relative luminescence activity, 6h-f-CTZ, Imax” value in assay [4] (substrate 6h-f-CTZ, Imax) came out at 0.3. Moreover, the “Relative luminescence activity, 6h-f-CTZ, Int.” value in assay [4] (substrate 6h-f-CTZ, Int.) amounted to 0.4. For the same molecule, the “Relative luminescence activity, CTZ, Imax” value in assay [4] (substrate CTZ, Imax) is recorded as 1.0. Also, in assay [4] (substrate CTZ, Int.), the “Relative luminescence activity, CTZ, Int.” value is 1.0. In the assay on CHO-K1 cells [5] (cell extracts), the “Relative luminescence activity (%, Imax) Cell extracts” value is 0.2%. In the assay with CHO-K1 cells [5] (culture medium), the “Relative luminescence activity (%, Imax) Culture medium” value amounted to 0.1%.
